Key:
[1] = target: T1, full-length human EphA10 expressed on NIH 3T3 cells (human, UniProt Q5JZY3 34-1008); assay: FACS on NIH 3T3 cells expressing full-length human EphA10
T1 construct: whole, on cells
T1 sequence (looked up): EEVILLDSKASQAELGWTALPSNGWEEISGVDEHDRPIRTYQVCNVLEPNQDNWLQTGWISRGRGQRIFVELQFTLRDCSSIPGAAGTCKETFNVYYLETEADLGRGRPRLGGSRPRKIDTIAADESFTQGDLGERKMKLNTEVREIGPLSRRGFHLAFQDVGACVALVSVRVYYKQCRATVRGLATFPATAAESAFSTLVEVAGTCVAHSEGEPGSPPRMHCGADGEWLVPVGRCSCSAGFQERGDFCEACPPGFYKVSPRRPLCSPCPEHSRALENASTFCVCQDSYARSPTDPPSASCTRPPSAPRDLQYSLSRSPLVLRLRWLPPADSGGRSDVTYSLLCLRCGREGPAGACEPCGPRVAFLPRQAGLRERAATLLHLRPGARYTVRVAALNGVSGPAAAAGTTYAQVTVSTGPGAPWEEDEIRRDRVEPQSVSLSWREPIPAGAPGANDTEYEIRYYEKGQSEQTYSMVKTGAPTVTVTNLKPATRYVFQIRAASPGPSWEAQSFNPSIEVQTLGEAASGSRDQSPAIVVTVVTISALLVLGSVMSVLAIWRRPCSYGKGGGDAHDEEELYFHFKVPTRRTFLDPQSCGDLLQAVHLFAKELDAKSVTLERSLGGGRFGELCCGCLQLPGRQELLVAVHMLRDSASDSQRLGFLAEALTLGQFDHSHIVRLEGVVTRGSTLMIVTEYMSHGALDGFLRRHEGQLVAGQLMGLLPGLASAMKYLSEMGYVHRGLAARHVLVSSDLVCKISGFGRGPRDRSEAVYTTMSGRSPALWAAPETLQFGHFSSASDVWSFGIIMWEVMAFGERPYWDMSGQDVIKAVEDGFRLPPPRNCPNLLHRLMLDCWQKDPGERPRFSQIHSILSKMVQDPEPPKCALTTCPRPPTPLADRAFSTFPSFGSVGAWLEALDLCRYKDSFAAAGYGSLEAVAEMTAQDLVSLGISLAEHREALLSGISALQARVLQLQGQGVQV

[2] = target: T2, EphA10 antigen (R&D systems) (Homo sapiens (Human), UniProt Q5JZY3 34-565); assay: indirect ELISA on coated EphA antigen, ScFv-mouse IgG2a antibody titrated
T2 construct: Coated antigen in the indirect ELISA; The Biacore assay says only 'EphA 10' without source or form; also called ephrin type-A receptor 10
T2 sequence: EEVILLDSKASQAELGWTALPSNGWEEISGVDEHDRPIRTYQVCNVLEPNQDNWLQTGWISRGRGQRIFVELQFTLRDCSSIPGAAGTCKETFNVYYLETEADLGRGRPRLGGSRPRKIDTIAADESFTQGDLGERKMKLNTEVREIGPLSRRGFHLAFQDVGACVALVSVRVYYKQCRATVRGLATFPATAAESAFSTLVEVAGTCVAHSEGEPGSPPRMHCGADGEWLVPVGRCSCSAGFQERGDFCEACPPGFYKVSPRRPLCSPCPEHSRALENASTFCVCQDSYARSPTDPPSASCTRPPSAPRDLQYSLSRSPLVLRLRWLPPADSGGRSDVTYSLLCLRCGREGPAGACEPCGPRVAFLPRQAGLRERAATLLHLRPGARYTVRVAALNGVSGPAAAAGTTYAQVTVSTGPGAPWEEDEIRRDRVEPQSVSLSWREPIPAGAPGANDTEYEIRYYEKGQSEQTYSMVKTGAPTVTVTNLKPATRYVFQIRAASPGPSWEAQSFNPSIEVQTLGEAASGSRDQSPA
Procedure: ScFv sequences were fused with mouse IgG2a sequence and sub-cloned into pcDNA3.1 plasmid. Three ScFv-mouse IgG2a plasmids were transfected into HEK293 cells. Three ScFv-mouse IgG2a antibodies were purified by protein A resin. Three antibodies were tested for indirect ELISA against coated 9 EPHA antigens (EphA1-8 and 10, R&D systems).

[3] = target: T2, EphA10 antigen (R&D systems); assay: Biacore 8K SPR, global fit to 1:1 binding model, triplicates
Excerpt: CMU #13 was also subjected to a Biacore assay.

B1: CMU #13 scFv (clone from human B cell-derived scFv phage display library) (scFv)
scFv: QVQLVQSGAEVKKPGSSVKVSCKASGGTFSSYAISWVRQAPGQGLEWMGGIIPIFGTANYAQKFQGRVTITADESTSTAYMELSSLRSEDTAVYYCAREGDSYGYYYGMDVWGQGTTVTVSSGGGGSGGGGSGGGGSQPVLTQPPSASGTPGQRVTISCSGSSSNIGSNYVYWYQQLPGTAPKLLIYENYLRPSGVPDRFSGSKTGTSASLAISGLQSEDEADYYCAAWDDSLNGYVFGTGTQLTVLS
binding result [1]: binds

B2: CMU #13 ScFv-mouse IgG2a antibody (Fc fusion)
chain: QVQLVQSGAEVKKPGSSVKVSCKASGGTFSSYAISWVRQAPGQGLEWMGGIIPIFGTANYAQKFQGRVTITADESTSTAYMELSSLRSEDTAVYYCAREGDSYGYYYGMDVWGQGTTVTVSSGGGGSGGGGSGGGGSQPVLTQPPSASGTPGQRVTISCSGSSSNIGSNYVYWYQQLPGTAPKLLIYENYLRPSGVPDRFSGSKTGTSASLAISGLQSEDEADYYCAAWDDSLNGYVFGTGTQLTVLSEPRGPTIKPCPPCKCPAPNLLGGPSVFIFPPKIKDVLMISLSPIVTCVVVDVSEDDPDVQISWFVNNVEVHTAQTQTHREDYNSTLRVVSALPIQHQDWMSGKEFKCKVNNKDLPAPIERTISKPKGSVRAPQVYVLPPPEEEMTKKQVTLTCMVTDFMPEDIYVEWTNNGKTELNYKNTEPVLDSDGSYFMYSKLRVEKKNWVERNSYSCSVVHEGLHNHHTTKSFSRTPGK
notes: The Biacore assay names only 'CMU #13'; also called anti-EphA10 antibody CMU #13
EC50 (read off the curve) [2]: ~0.4 nM
Kd [3]: 1.79 nM
koff [3]: 0.00288 s⁻¹
kon [3]: 1.61e+06 M⁻¹ s⁻¹

— US20250017968A1 (CHINA MEDICAL UNIVERSITY, published 2025)
